Here are results for one substance from article PMC9598537.

Experiment [1] has as its target AR9 chaperonin (gp228, product of gene 228 of bacteriophage AR9 Bacillus subtilis) (bacteriophage AR9 (Bacillus subtilis phage)). The experiment is described as follows: SAXS; gp228 at 0.5 to 7.0 mg/mL, 20 °C, P12 beamline PETRA III; oligomeric state from the excluded volume Vp.
The target is the same in experiment [2]. The experiment is described as follows: cryo-EM structure; purified apo gp228 in 50 mM Tris-HCl pH 7.5, 10 mM MgCl2, 100 mM KCl; single particle analysis, maps with no symmetry and with C7 symmetry; homology model flexibly fitted into the map.

In general, stoichiometry N refers to a count of units in the complex or per binding partner.

As for “AR9 chaperonin (gp228, product of gene 228 of bacteriophage AR9 Bacillus subtilis) (natural protein)”, the stoichiometry N in experiment [1] and in experiment [2] was 7 throughout.
